Data on one molecule can be found in patent CN114106176A (SHENZHEN PHENPENG BIOTHERAPY CO LTD, dated 2022).

The assay concerns the target T1, 人CD22胞外段缀合His标签 (hCD22-His, ACRO, CD2-H52H8) (human, UniProt P20273 20-687).
T1 construct: extracellular domain; Bought recombinant protein; also called 人类hCD22-His; not shown: His tag
T1 sequence (looked up): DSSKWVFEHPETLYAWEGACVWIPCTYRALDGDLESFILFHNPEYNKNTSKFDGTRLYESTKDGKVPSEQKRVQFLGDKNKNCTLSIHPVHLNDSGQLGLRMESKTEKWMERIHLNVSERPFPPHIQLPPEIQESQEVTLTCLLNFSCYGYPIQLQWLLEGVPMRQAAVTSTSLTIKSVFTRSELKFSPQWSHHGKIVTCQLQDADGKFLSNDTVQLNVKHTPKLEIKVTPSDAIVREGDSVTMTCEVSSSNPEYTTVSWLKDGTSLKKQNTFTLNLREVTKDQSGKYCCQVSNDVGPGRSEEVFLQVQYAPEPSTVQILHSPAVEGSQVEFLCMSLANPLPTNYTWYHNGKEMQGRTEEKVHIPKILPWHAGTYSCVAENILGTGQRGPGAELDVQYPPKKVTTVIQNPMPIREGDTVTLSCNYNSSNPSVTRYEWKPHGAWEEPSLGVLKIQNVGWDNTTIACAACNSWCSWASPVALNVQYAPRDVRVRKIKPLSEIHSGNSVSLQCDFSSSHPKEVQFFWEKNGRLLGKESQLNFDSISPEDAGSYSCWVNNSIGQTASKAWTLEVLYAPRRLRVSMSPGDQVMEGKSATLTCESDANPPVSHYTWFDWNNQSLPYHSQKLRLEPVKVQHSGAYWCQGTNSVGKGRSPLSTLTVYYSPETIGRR
The assay is described as follows: ELISA, hCD22-His coated at 2 ug/ml, 3-fold antibody dilutions. For orientation: In an ELISA, binding on a coated surface is turned into a signal by an enzyme label.

B1: 5CD22-111-1-C3 (antibody, mouse IgG1, kappa, V domains shown)
VH: EVKLEESGGGLVQPGGFMKLSCVASGFTFSNYWMNWVRQSPERGLEWVAEIRLKSNDYATHYAESVKGRFTISRDDSKSNVYLQMNNLRAEDTGIYYCTRVYYYGRDYAMDYWGQGTSVTVSS
VL: QIVLTQSPAIMSASLGERVTMTCTASSSVSSIYLHWYQQKPGSSPKLWIYSTSNLASGVPGRFSGSGSGTSYSLTISSMEAEDAATYYCHQYHRSPRTFGGGTKLEIKR
B1: the binding result is “binds”.
